This is an account of results in PMC6959990.

For assay [1], the target named is PCAT1(C21A) (Clostridium thermocellum) (UniProt A3DCU1). Briefly: cryo-EM structure; PCAT1(C21A) (5 mg/ml, 62 µM monomer) mixed with 62 µM refolded CtA, 30 min on ice, in UDM, no ATP.
Assay [2] has the same target. The experiment in a line: native MS; in 200 mM ammonium acetate pH 7.5 with 0.5% C8E4 (2X CMC); 4 µM PCAT1 monomer alone, or 4 µM PCAT1(C21A) monomer + 8 µM CtA (two-fold excess of CtA); abundances corrected for gas-phase dissociation.
For assay [3] the target is unchanged. The experiment in a line: native MS; in 200 mM ammonium acetate pH 7.5 with 0.058% UDM (2X CMC); 4 µM PCAT1 monomer alone, or 4 µM PCAT1(C21A) monomer + 8 µM CtA (two-fold excess of CtA); abundances corrected for gas-phase dissociation.
Assay [4] deals with wt PCAT1 (Clostridium thermocellum) (UniProt A3DCU1). The experiment in a line: native MS; in 200 mM ammonium acetate pH 7.5 with 0.5% C8E4 (2X CMC); 4 µM PCAT1 monomer alone, or 4 µM PCAT1(C21A) monomer + 8 µM CtA (two-fold excess of CtA); abundances corrected for gas-phase dissociation.
The target is the same in assay [5]. Briefly: native MS; in 200 mM ammonium acetate pH 7.5 with 0.058% UDM (2X CMC); 4 µM PCAT1 monomer alone, or 4 µM PCAT1(C21A) monomer + 8 µM CtA (two-fold excess of CtA); abundances corrected for gas-phase dissociation.

Take CtA (natural protein): the stoichiometry N (CtA per PCAT1 transporter) in assay [1] came to 2. In assay [2], the % abundance of the C21A-PCAT1 dimer + 1 CtA complex worked out at 16%, the % abundance of the C21A-PCAT1 dimer + 2 CtA complex was 84% and the stoichiometry N (CtA per PCAT1 dimer) turned out to be 2. Moreover, in assay [3], the % abundance of the C21A-PCAT1 dimer + 1 CtA complex is 25%, the % abundance of the C21A-PCAT1 dimer + 2 CtA complex was determined as 75% and the stoichiometry N (CtA per PCAT1 dimer) worked out at 2.

For “PCAT1(C21A) (from UniProt A3DCU1 1-727) (natural protein)”, the stoichiometry N in assay [2] and in assay [3] was 2 in each case.

For the substance “wt PCAT1 (from UniProt A3DCU1 1-727) (natural protein)”, the stoichiometry N in assay [4] and in assay [5] was 2 throughout.
